Drawing on PMC11220700, “Activation and Purification of ß‐Glucocerebrosidase by Exploiting its Transporter LIMP‐2 – Implications for Novel Treatment Strategies in Gaucher's and Parkinson's Disease” (Advanced Science, 2024), this text covers other for one molecule.

The assay deals with imiglucerase/Cerezyme (recombinant GCase, Sanofi Genzyme), P04062.

*: point of attachment. Biotin = O=C1N[C@H]2[C@H](CS[C@H]2CCCCC(=O)*)N1

Chain of imiglucerase/Cerezyme (recombinant GCase, Sanofi Genzyme), P04062 (P04062 40-536): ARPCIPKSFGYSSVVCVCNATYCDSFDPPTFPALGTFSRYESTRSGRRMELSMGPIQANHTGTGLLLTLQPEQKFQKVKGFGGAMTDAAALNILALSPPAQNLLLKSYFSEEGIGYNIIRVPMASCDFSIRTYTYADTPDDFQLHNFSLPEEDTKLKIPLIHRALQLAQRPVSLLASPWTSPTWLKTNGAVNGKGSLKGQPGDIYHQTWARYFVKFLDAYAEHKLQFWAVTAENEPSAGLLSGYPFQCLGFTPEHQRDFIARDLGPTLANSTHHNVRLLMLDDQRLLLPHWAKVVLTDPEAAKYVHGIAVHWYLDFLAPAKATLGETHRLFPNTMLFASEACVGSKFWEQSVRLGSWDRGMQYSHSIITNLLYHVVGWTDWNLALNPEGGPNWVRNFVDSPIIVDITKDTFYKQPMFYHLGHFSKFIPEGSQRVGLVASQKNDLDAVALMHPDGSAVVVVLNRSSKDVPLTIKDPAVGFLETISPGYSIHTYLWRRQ

As to Biotin-KFERQGSGSQVHFLREIIEAMLKAYQSGSGYGRKKRRQRRR-NH2 [L2H5‐wt peptide (LIMP‐2‐derived helix 5 peptide)], the other was 2.63 fold.
